Laboratory results: patent US20250243243A1, “DISRUPTION OF SONIC HEDGEHOG-SURF4 INTERACTION FOR CANCER TREATMENT” (The Hong Kong University of Science and Technology, priority 2022, published 2025)

Target: ShhN^1-198-HA (mouse) (UniProt Q62226)
Assay: anti-HA immunoprecipitation from HEK293T lysate, label-free quantitative mass spectrometry; 1 unique peptide; Control Group, IGF2 Group and Abundance Ratio not given

ShhN^1-198-HA (mouse), sequence (Q62226 25-198): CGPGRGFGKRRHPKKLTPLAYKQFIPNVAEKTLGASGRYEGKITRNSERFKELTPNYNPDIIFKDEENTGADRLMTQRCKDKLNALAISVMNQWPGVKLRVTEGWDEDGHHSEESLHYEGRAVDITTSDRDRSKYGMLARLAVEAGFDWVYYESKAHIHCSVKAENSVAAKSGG

abundance in The ShhN Group	Substance
45400	VPS51 (from UniProt Q9UID3)
8940	PPIB (from UniProt P23284) (enzyme)
2060	BHMT (from UniProt Q93088) (enzyme)
19800	GRIA1 (from UniProt P42261) (receptor)
